{"source": "paper doi:10.1101/2025.10.06.680090", "target": "HAdV-C5 capsid (replication-defective, E1-deleted vector HAdV-C5-GFP) (human adenovirus type C5)", "assay": "SPR", "data": [{"substance": "recombinant human langerin protein (hCD207) (from UniProt Q9UJ71 1-328) (receptor)", "values": [{"measurement": "Kd", "value": 39, "unit": "nM"}]}]}
